Laboratory results published in paper PMC6733452.

What was measured:
Assay in all cases: cross-linking + ELISA
[1] = molecular target: TcpP-K102E (V. cholerae) (UniProt P29485)
[2] = molecular target: TcpP-N99D (V. cholerae) (UniProt P29485)
[3] = molecular target: TcpP-HSV (wild-type, from pEK41) (V. cholerae) (UniProt P29485)

Substance | percent reduction in TcpP interaction relative to wild-type ToxR [3] [%] | further results
ToxR (wild-type, expressed from the chromosomal toxR locus) (from UniProt P15795 1-294) (natural protein) | – | percent reduction in ToxR interaction relative to wild-type TcpP-HSV [1]: 50%; percent reduction in ToxR interaction relative to wild-type TcpP-HSV [2]: 50%
ToxR-L107A (chromosomally expressed) (from UniProt P15795 1-294) (natural protein) | 70 | –
ToxR-T91A (chromosomally expressed) (from UniProt P15795 1-294) (natural protein) | 45 | –
ToxR-V97A (chromosomally expressed) (from UniProt P15795 1-294) (natural protein) | – | percent defect in TcpP interaction relative to wild-type ToxR [3]: > 60%
ToxR-Y96A (chromosomally expressed) (from UniProt P15795 1-294) (natural protein) | 40 | –
